Broadly, the Ki is a measure of affinity in units of concentration, obtained from inhibition or displacement. In general, IC50 refers to the concentration needed to halve the response being measured. In general, Kd refers to a measure of binding affinity in units of concentration. Lower therefore signals a tighter complex.

Ends that are not written are not given here.

Experiment [1] addresses T1, MED23 (mediator of RNA polymerase II transcription subunit 23) (Homo sapiens, UniProt Q9ULK4).
T1 construct: (His)6-MED23_391-582; with ELF3 (FITC-labeled ELF3_129-145 peptide)
As to the kind of experiment: cell-free fluorescence polarization displacement of FITC-ELF3_[…]-145 from (His)6-MED23_[…]-582. In kind it is binding.

The target of experiment [2] is T2, Cluc-MED23_(391-582) (UniProt Q9ULK4 391-582).
T2 construct: MED23 residues 391-582; also called MED23_(391-582) fragment fused with Cluc; source: HEK293, transfected, in cells
T2 sequence (looked up): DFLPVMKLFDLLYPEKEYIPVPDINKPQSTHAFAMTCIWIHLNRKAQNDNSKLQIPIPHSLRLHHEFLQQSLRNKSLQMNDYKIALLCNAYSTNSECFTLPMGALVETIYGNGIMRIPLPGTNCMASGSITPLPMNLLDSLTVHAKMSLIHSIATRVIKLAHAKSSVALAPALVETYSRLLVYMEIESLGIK
As to the kind of experiment: split reporter (BiFC, NanoBiT); split firefly luciferase complementation in HEK293 co-transfected with Nluc-ELF3 and Cluc-MED23(391-582); without compound 10. The settings on record: partners not purified.

The target in experiment [3] is T3, (His)6-MED23_(391-582) protein (UniProt Q9ULK4 391-582).
T3 chain: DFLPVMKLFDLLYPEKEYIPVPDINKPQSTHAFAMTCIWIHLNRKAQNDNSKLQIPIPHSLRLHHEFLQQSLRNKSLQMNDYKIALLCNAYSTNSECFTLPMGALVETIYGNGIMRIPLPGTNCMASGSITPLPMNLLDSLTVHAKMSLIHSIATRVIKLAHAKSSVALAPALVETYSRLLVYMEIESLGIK
Nature of the experiment: FP; competition with FITC-ELF3(129-145).

The target in experiment [4] is T4, (His)6-MED23_(391-582) protein (UniProt Q9ULK4 391-582).
T4 construct: MED23 (mediator of RNA polymerase II transcription subunit 23), residues 391-582
T4 sequence (looked up): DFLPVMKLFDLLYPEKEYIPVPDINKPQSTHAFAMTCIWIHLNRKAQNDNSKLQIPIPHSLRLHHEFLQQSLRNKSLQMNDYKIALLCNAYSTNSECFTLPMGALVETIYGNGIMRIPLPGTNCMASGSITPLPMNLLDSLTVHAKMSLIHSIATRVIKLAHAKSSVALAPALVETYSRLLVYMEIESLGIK
As to the kind of experiment: fluorescence polarisation; cell-free displacement; varying concentrations of unlabeled ELF3(137-144) peptide added to 80 nM (His)6-MED23(391-582) and 10 nM FITC-ELF3(129-145); Ki from IC50 by the Cheng-Prusoff equation; n=3. The settings on record: both partners purified. On the technique in general: Polarisation of emitted light reports the rotation of a fluorescent probe.

Experiment [5] has as its target T4, (His)6-MED23_(391-582) protein. As to the kind of experiment: fluorescence polarisation; cell-free; different concentrations of (His)6-MED23(391-582) with 10 nM FITC-ELF3(129-145) in assay buffer; least-squares non-linear fit; n=3. The following applies: both partners purified.

`COc1ccc(/C=C/C(=O)c2cc(OC)c(OC)c(OC)c2)cc1OCC=C(C)C` [compound 10, (E)–3-(4-Methoxy-3-((3-methylbut-2-en-1-yl)oxy)phenyl)–1-(3,4,5-trimethoxyphenyl) prop-2-en-1-one] came in with a Ki in experiment [1] of 0.68 ± 0.08 µM.

B1: Nluc-ELF3WT (natural protein, UniProt P78545 1-371, looked up)
chain: MAATCEISNIFSNYFSAMYSSEDSTLASVPPAATFGADDLVLTLSNPQMSLEGTEKASWLGEQPQFWSKTQVLDWISYQVEKNKYDASAIDFSRCDMDGATLCNCALEELRLVFGPLGDQLHAQLRDLTSSSSDELSWIIELLEKDGMAFQEALDPGPFDQGSPFAQELLDDGQQASPYHPGSCGAGAPSPGSSDVSTAGTGASRSSHSSDSGGSDVDLDPTDGKLFPSDGFRDCKKGDPKHGKRKRGRPRKLSKEYWDCLEGKKSKHAPRGTHLWEFIRDILIHPELNEGLMKWENRHEGVFKFLRSEAVAQLWGQKKKNSNMTYEKLSRAMRYYYKREILERVDGRRLVYKFGKNSSGWKEEEVLQSRN
notes: ELF3, full-length cDNA, wild type; source: HEK293, transfected, in cells
Turning to B1, in experiment [2], the “fold change of bioluminescence vs. control” value worked out at 32.7 fold.

B2: unlabeled ELF3_(137-144) peptide (peptide, UniProt P78545 137-144, looked up)
peptide: SWIIELLE
notes: ELF3 residues 137-144 (S137 to E144), within the TAD domain; Positive control of the FP displacement assay
Take B2: the IC50 in experiment [3] came out at 8.81 µM. This molecule also showed a Ki in experiment [4] of 4.47 µM.
On to TSSSSDELSWIIELLEK (peptide, UniProt P78545 129-145, looked up, also: FITC label, position not given here, also called ELF3-FITC peptide (17 a.a.)) [fluorescein isothiocyanate (FITC)-labeled ELF3_(129-145) peptide], for which the dissociation constant Kd in experiment [5] was found to be 0.0102 µM.

The values above are taken from article PMC11623927, “Synthesis and biological assessment of chalcone and pyrazoline derivatives as novel inhibitor for ELF3-MED23 interaction” (eLife, 2024).
